Results taken from publication PMC9723635.

Key:
[1] = system: RBPMS-A T/E; assay: UV crosslinking; conditions: 4 uM protein, with 20% HeLa nuclear extract, EMSA: 50 mM HEPES pH 7.2-7.9, 15 mM MgCl2, 25% glycerol, 5 mM DTT, 45 mM KCl, 5 ug tRNA, 20 fmol RNA, 25 min at 30 C, then 5 ug heparin 5 min at 30 C
[2] = system: RBPMS-A T/E; assay: EMSA; conditions: apparent Kd, Hill fit; tRNA and heparin present; EMSA: 50 mM HEPES pH 7.2-7.9, 15 mM MgCl2, 25% glycerol, 5 mM DTT, 45 mM KCl, 5 ug tRNA, 20 fmol RNA, 25 min at 30 C, then 5 ug heparin 5 min at 30 C; 4% …
[3] = system: RBPMS-A T/A; assay: EMSA; conditions: apparent Kd, Hill fit; tRNA and heparin present; EMSA: 50 mM HEPES pH 7.2-7.9, 15 mM MgCl2, 25% glycerol, 5 mM DTT, 45 mM KCl, 5 ug tRNA, 20 fmol RNA, 25 min at 30 C, then 5 ug heparin 5 min at 30 C; 4% …

Row | Substance | binding signal [1] | Kd [2] | Kd [3]
1 | Tpm1 UV-crosslinking RNA | 7.8 % of WT |  | 
2 | Tpm1 exon 3 upstream intron EMSA RNA (three tandem CAC motifs) |  | 0.756 µM | 0.268 µM
